Laboratory results published in article PMC4059961, “The transcriptional network of WRKY53 in cereals links oxidative responses to biotic and abiotic stress inputs”.

Biological target: SUMO::TaWRKY53 (Triticum aestivum L. cv. Gamtoos-R)
Assay: EMSA; Probe EMSA: 10 mM Tris, 50 mM KCl, 1 mM DTT, pH 7.5, 20 min, room temperature; 1-kb EMSA: 10 mM Tris, 100 mM KCl, 1 mM EDTA, 0.1 mM DTT, 5% glycerol, 0.01 mg/mL BSA, pH 7.5, room temperature
Conditions: protein: recombinant; tags: N-terminal 6xHis-SUMO; label: biotin; blunt

Chain of SUMO::TaWRKY53 (Triticum aestivum L. cv. Gamtoos-R) (chain, as listed by the source): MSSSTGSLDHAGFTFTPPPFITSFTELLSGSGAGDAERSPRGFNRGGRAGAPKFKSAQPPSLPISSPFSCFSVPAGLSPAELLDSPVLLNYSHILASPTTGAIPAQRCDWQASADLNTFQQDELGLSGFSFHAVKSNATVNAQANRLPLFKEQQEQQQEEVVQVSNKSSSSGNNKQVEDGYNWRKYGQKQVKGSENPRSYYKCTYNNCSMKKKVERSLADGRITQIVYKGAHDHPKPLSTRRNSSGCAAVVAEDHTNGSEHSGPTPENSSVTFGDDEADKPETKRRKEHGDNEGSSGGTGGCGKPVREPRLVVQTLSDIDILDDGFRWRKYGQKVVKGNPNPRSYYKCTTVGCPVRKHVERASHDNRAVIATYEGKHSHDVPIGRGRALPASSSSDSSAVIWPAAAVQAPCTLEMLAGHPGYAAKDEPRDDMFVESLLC

| Binder | binding result |
| --- | --- |
| ORK10 promoter probe (dsDNA) DNA 1: ATCTGGTCAACAATGTATTACACACTGCTTTGACTACTTCCCCCAAAAAAGTACACACTGCTTTGACTCAGGTCAAACTT DNA 2: AAGTTTGACCTGAGTCAAAGCAGTGTGTACTTTTTTGGGGGAAGTAGTCAAAGCAGTGTGTAATACATTGTTGACCAGAT | binds |
| POC1 promoter probe (dsDNA) DNA 1: ACGTAAATTTTTTGAATAAGACAAATGGTCAAACATGTAAGAAAAGAAAGTCAACGGCGTCATCTATTTAAAAAACGGAT DNA 2: ATCCGTTTTTTAAATAGATGACGCCGTTGACTTTCTTTTCTTACATGTTTGACCATTTGTCTTATTCAAAAAATTTACGT | binds |
